Reference: patent US20230405146A1 (HARBOUR ANTIBODIES, published 2023)
Numbering of substitutions follows the chain as printed. Ends that are not written are not given here.

T1: CD34 peptide (region 191 aa-207aa of the extracellular domain of CD34) coupled to BSA (human, also: coupled to BSA, site not given here)
T1 construct: also called CD34 specific peptide
T1 peptide: LEQNKTSSCAEFKKDRG

B1: 3.2E3 (antibody, V domains shown)
VH: QVQLVESGGGVVQPGRSLRLSCVASGFTLSLNGMHWVRQAPGKGLEWVAVIWYDGSNRYYVDSVKGRFTISRDNSKNTLYLQMNSLRAEDTAVYYCARESFLGTFDYWGQGTLVTVSS
VL: DIQLTQSPSFLSASVGDRVTITCRASQGISSYLAWYQQKPGKAPKLLIYAASTLQSGVPSRFSGSGSGTEFTLTISSLQPEDFATYYCQQLNSYPYTFGQGTKLEIK
B2: 4.5c5 (antibody, V domains shown)
VH: EMQLLESGGGLVQPGGSLRLSCAASGFTFGHYAMTWVRQVPGKGLDWVSAISGGGTFTHYADSVKGRFTTSRDNSKNTLYLQMSSLRAEDTALYYCAKDQGYDYSWYYFDYWGQGTLVTVSS
VL: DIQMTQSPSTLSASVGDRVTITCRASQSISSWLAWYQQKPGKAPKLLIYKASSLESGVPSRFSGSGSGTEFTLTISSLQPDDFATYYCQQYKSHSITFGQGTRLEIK
notes: Anti-CD34 hybridoma clone from H2L2 mice
B3: 4.5 e5 (antibody, V domains shown)
VH: B2 VH
VL: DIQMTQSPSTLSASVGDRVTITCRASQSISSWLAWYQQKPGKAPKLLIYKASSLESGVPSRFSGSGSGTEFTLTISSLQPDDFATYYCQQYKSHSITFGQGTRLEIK
notes: as for B2
B4: L.1c7 (antibody, V domains shown)
VH: B2 VH with Y32F, T35S, T56S, H59Y, Y60S, Y111F
VL: DIQMTQSPSTLSASVGDRVTITCRASQSISSWLAWYQQRPGKAPKLLIYKASSLESGVPSRFSGRGSGTEFTLTISSLQPDDFATYYCQQYKSHSITFGQGTRLEIK
notes: as for B2
B5: 2.4c10 (antibody, V domains shown)
VH: QVQLVESGGGVVQPGRSLRLSCAASGFTFSNYGMHWVRQAPDKGLEWVAVIWYDGSKKYYADSVKGRFTISRDDSKNTLYLQMNSLRAEDTAVYYCARWGELRYDAFDIWGQGTMVTVSS
VL: not shown
notes: as for B2
B6: 2.6f11 (antibody, V domains shown)
VH: B5 VH with N31S, D42G, A61T, D74N, Y94F, E101S, L102G, R103N, Y104F, A106S
VL: DIQMTQSPSTLSASVGDRVTITCRASQSISSWLAWYQQKPGKAPKLLISKASSLESGVPSRFSGSGSGTEFTLTISSLQPDDFATYYCQQYKNYWTFGQGTKVEIK
notes: as for B2

target: T2, human Gpr56 on cells (primary blood cells; 32D-Gpr56 cell line) (human, UniProt Q9Y653 26-693); assay: flow cytometry, 32D-Gpr56 cells, α-rat AF647 secondary; the dashed histogram is taken as the control
T2 construct: whole, on cells; In the nanoparticle assays the cells were gated or isolated by CD34, not by Gpr56
T2 sequence (Q9Y653 26-693): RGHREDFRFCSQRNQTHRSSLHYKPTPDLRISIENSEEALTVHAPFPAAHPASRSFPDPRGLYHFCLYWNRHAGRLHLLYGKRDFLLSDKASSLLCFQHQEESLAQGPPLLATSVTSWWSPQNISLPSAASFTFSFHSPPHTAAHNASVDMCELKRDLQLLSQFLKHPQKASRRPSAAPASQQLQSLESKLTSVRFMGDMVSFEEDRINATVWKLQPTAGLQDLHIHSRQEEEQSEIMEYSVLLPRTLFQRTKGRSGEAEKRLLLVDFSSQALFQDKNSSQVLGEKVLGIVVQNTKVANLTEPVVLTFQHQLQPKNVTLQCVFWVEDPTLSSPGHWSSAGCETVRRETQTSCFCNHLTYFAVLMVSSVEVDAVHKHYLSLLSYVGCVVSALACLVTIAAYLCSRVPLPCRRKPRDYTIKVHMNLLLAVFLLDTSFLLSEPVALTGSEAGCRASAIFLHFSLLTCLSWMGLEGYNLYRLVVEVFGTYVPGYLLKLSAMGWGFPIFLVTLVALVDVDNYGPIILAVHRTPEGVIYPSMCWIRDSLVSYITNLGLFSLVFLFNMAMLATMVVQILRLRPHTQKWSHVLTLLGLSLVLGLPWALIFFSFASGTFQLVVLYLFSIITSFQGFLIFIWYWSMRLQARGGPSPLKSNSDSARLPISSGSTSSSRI

Row | binding result | Binder
1 | no binding (tested: 10 µg/ml) | B1

Target: T1, CD34 peptide (region 191 aa-207aa of …)
Assay: not stated: column headed Affinity, with no unit, method or antigen form printed; table of the CD34-peptide-positive monoclonals

Row | Affinity | Binder
2 | 1.3e-09 | B2
3 | 8.2e-10 | B3
4 | 3.9e-09 | B4
5 | 3e-08 | B5
6 | 2.1e-09 | B6
